Positions count from the first letter of the chain named. Values belong to the binder of their own block, whether it stands above or below them.
Tests used:
Assay in all cases: cell-based or functional assay
[1] = biological target: recombinant human VEGF165 (human, UniProt P15692 207-395)
[2] = biological target: recombinant human PDGF-BB (human, UniProt P01127 82-190)
Target sequence in this assay (P01127 82-190 limits assumed): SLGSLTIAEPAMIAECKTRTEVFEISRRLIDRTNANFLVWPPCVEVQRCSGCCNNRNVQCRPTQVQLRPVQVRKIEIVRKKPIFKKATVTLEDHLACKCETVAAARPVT

[3] = biological target: recombinant human PDGF-BB (human, UniProt P01127 82-190); remark: listed apart in the source
Target sequence in this assay (P01127 82-190 limits assumed): as above

Sequence of recombinant human VEGF165 (P15692 other isoform, or with tags, fused parts or gaps limits assumed): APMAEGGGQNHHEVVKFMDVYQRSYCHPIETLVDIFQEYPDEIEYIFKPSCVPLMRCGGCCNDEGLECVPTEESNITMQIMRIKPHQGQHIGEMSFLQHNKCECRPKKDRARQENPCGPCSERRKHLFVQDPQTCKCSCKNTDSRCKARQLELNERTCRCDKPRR

B1: CL-33675_GS_1B10.1 (bispecific antibody, human IgG1, kappa, L234A L235A)
heavy: EVTLRESGPALVKPTQTLTLTCTFSGFSLSTYGMGVGWIRQPPGKALEWLANIWWDDDKYYNPSLKNRLTISKDTSKNQVVLTMTNMDPVDTATYYCARIESSGPKYSFDYWGQGTMVTVSSGGGGSGGGGSEVQLVESGGGLVQPGGSLRLSCAASGFSFSKYDMAWFRQAPGKGLEWVASITTSGVGTYYRDSVKGRFTVSRDNAKSTLYLQMNSLRAEDTAVYYCARGYGAMDAWGQGTTVTVSSASTKGPSVFPLAPSSKSTSGGTAALGCLVKDYFPEPVTVSWNSGALTSGVHTFPAVLQSSGLYSLSSVVTVPSSSLGTQTYICNVNHKPSNTKVDKKVEPKSCDKTHTCPPCPAPEAAGGPSVFLFPPKPKDTLMISRTPEVTCVVVDVSHEDPEVKFNWYVDGVEVHNAKTKPREEQYNSTYRVVSVLTVLHQDWLNGKEYKCKVSNKALPAPIEKTISKAKGQPREPQVYTLPPSREEMTKNQVSLTCLVKGFYPSDIAVEWESNGQPENNYKTTPPVLDSDGSFFLYSKLTVDKSRWQQGNVFSCSVMHEALHNAYTQKSLSLSPGK
light: EIVLTQSPGTLSLSPGERATLSCRASSGSIWYSFVSWYQQKPGQAPRLLIYADDQRASGIPDRFSGSGSGTDFTLTISRLEPEDFAVYYCQSYGINIDVVFGGGTKVEIKGGSGGGGSGGDIQMTQSPSSLSASVGDRVTITCKASQDIDDYLSWYQQKPGKSPKLVIYAATRLADGVPSRFSGSGSGTDYTLTISSLQPEDFATYYCLQSSSTPWTFGGGTKVEIKRTVAAPSVFIFPPSDEQLKSGTASVVCLLNNFYPREAKVQWKVDNALQSGNSQESVTEQDSKDSTYSLSSTLTLSKADYEKHKVYACEVTHQGLSSPVTKSFNRGEC
Potency IC50 (nM) HMVEC-d hVEGF165 [1]: 0.265 nM
Potency IC50 (nM) NIH-3T3 hPDGF-BB [2]: 0.11 nM

B2: CL-33675_GS_4G8.5 (bispecific antibody, human IgG1, kappa, L234A L235A)
heavy: EVTLRESGPALVKPTQTLTLTCTFSGFSLSTYGMGVGWIRQPPGKALEWLANIWWDDDKYYNPSLKNRLTISKDTSKNQVVLTMTNMDPVDTATYYCARIESSGPKYSFDYWGQGTMVTVSSGGGGSGGGGSEIQLVQSGSELKKPGASVKVSCKASGYTFTNYGMYWVRQAPGQGLEYMGWINTETGKPTYADDFKGRFVFSLDTSVSTAYLQISSLKAEDTAVYFCARTNYYYRSYIFYFDYWGQGTMVTVSSASTKGPSVFPLAPSSKSTSGGTAALGCLVKDYFPEPVTVSWNSGALTSGVHTFPAVLQSSGLYSLSSVVTVPSSSLGTQTYICNVNHKPSNTKVDKKVEPKSCDKTHTCPPCPAPEAAGGPSVFLFPPKPKDTLMISRTPEVTCVVVDVSHEDPEVKFNWYVDGVEVHNAKTKPREEQYNSTYRVVSVLTVLHQDWLNGKEYKCKVSNKALPAPIEKTISKAKGQPREPQVYTLPPSREEMTKNQVSLTCLVKGFYPSDIAVEWESNGQPENNYKTTPPVLDSDGSFFLYSKLTVDKSRWQQGNVFSCSVMHEALHNAYTQKSLSLSPGK
light: EIVLTQSPGTLSLSPGERATLSCRASSGSIWYSFVSWYQQKPGQAPRLLIYADDQRASGIPDRFSGSGSGTDFTLTISRLEPEDFAVYYCQSYGINIDVVFGGGTKVEIKGGSGGGGSGGATQLTQSPSLSASVGDRVTITCRASESVSTHMHWYQQKPGKQPKLLIYGASNLESGVPSRFSGSGSGTDFTLTISSLQPEDFATYFCQQSWNDPFTFGQGTKLEIKRTVAAPSVFIFPPSDEQLKSGTASVVCLLNNFYPREAKVQWKVDNALQSGNSQESVTEQDSKDSTYSLSSTLTLSKADYEKHKVYACEVTHQGLSSPVTKSFNRGEC
Potency IC50 (nM) HMVEC-d hVEGF165 [1]: 0.219 nM
Potency IC50 (nM) NIH-3T3 hPDGF-BB [2]: 0.035 nM

B3: 1E3.4_GS_3E2.1 (bispecific antibody, human IgG1, kappa, L234A L235A)
heavy: EIQLVQSGSELKKPGASVKVSCKASGYPFTNSGMYWVKQAPGQGLEYMGWINTEAGKPTYADDFKGRFVFSLDTSVSTAYLQISSLKAEDTAVYFCARWGYISDNSYGWFDYWGQGTLVTVSSGGGGSGGGGSEVQLVQSGAEVKKPGSSVKVSCKASGYTFTESYMYWVKQAPGQGLELIGRIDPEDGSTDYVEKFKNKATLTADKSTSTAYMELSSLRSEDTAVYFCARFGARSYFYPMDAWGQGTTVTVSSASTKGPSVFPLAPSSKSTSGGTAALGCLVKDYFPEPVTVSWNSGALTSGVHTFPAVLQSSGLYSLSSVVTVPSSSLGTQTYICNVNHKPSNTKVDKKVEPKSCDKTHTCPPCPAPEAAGGPSVFLFPPKPKDTLMISRTPEVTCVVVDVSHEDPEVKFNWYVDGVEVHNAKTKPREEQYNSTYRVVSVLTVLHQDWLNGKEYKCKVSNKALPAPIEKTISKAKGQPREPQVYTLPPSREEMTKNQVSLTCLVKGFYPSDIAVEWESNGQPENNYKTTPPVLDSDGSFFLYSKLTVDKSRWQQGNVFSCSVMHEALHNAYTQKSLSLSPGK
light: ATQLTQSPSSLSASVGDRVTISCRASEGVYSYMHWYQQKPGKQPKLLIYKASNLASGVPSRFSGSGSGTDFTLTISSLQPEDFATYFCHQNWNDPLTFGQGTKLEIKGGSGGGGSGGETVLTQSPATLSLSPGERATLSCRASESVSTLMHWYQQKPGQQPRLLIYGASNLESGVPARFSGSGSGTDFTLTISSLEPEDFAVYFCQQSWNDPWTFGGGTKVEIKRTVAAPSVFIFPPSDEQLKSGTASVVCLLNNFYPREAKVQWKVDNALQSGNSQESVTEQDSKDSTYSLSSTLTLSKADYEKHKVYACEVTHQGLSSPVTKSFNRGEC
Potency IC50 (nM) HMVEC-d hVEGF165 [1]: 0.043 nM
Potency IC50 (nM) NIH-3T3 hPDGF-BB [2]: 6.25 nM

B4: 3E2.1_GS_4G8.5 (bispecific antibody, human IgG1, kappa, L234A L235A)
heavy: EVQLVQSGAEVKKPGSSVKVSCKASGYTFTESYMYWVKQAPGQGLELIGRIDPEDGSTDYVEKFKNKATLTADKSTSTAYMELSSLRSEDTAVYFCARFGARSYFYPMDAWGQGTTVTVSSGGGGSGGGGSEIQLVQSGSELKKPGASVKVSCKASGYTFTNYGMYWVRQAPGQGLEYMGWINTETGKPTYADDFKGRFVFSLDTSVSTAYLQISSLKAEDTAVYFCARTNYYYRSYIFYFDYWGQGTMVTVSSASTKGPSVFPLAPSSKSTSGGTAALGCLVKDYFPEPVTVSWNSGALTSGVHTFPAVLQSSGLYSLSSVVTVPSSSLGTQTYICNVNHKPSNTKVDKKVEPKSCDKTHTCPPCPAPEAAGGPSVFLFPPKPKDTLMISRTPEVTCVVVDVSHEDPEVKFNWYVDGVEVHNAKTKPREEQYNSTYRVVSVLTVLHQDWLNGKEYKCKVSNKALPAPIEKTISKAKGQPREPQVYTLPPSREEMTKNQVSLTCLVKGFYPSDIAVEWESNGQPENNYKTTPPVLDSDGSFFLYSKLTVDKSRWQQGNVFSCSVMHEALHNAYTQKSLSLSPGK
light: ETVLTQSPATLSLSPGERATLSCRASESVSTLMHWYQQKPGQQPRLLIYGASNLESGVPARFSGSGSGTDFTLTISSLEPEDFAVYFCQQSWNDPWTFGGGTKVEIKGGSGGGGSGGATQLTQSPSLSASVGDRVTITCRASESVSTHMHWYQQKPGKQPKLLIYGASNLESGVPSRFSGSGSGTDFTLTISSLQPEDFATYFCQQSWNDPFTFGQGTKLEIKRTVAAPSVFIFPPSDEQLKSGTASVVCLLNNFYPREAKVQWKVDNALQSGNSQESVTEQDSKDSTYSLSSTLTLSKADYEKHKVYACEVTHQGLSSPVTKSFNRGEC
Potency IC50 (nM) HMVEC-d hVEGF165 [1]: 0.743 nM
Potency IC50 (nM) NIH-3T3 hPDGF-BB [2]: 0.38 nM

B6: hBDI-9E8.1 (antibody, V domains shown)
VH: EVTLRESGPALVKPTQTLTLTCTFSGFSLSTYGMGVGWIRQPPGKALEWLANIWWDDDKYYNPSLKNRLTISKDTSKNQVVLTMTNMDPVDTATYYCARIESIGTTYSFDYWGQGTMVTVSS
VL: NFMLTQPHSVSESPGKTVTISCERSSGDIGDSYVSWYQQRPGSSPTTVIYADDQRPSGVPDRFSGSIDSSSNSASLTISGLKTEDEADYYCQSYDINIDIVFGGGTKLTVL
hPDGF-BB IC50 (nM), hPDGF-BB-induced NIH-3T3 cell proliferation [3]: > 5 nM

B7: hBDI-9E8.4 half body (other)
VH: B6 VH
VL: EFVLTQSPGTLSLSPGERATLSCERSSGDIGDSYVSWYQQKPGQAPRLVIYADDQRPSGIPDRFSGSGSGTDFTLTISRLEPEDFAVYYCQSYDINIDIVFGGGTKVEIK
hPDGF-BB IC50 (nM), hPDGF-BB-induced NIH-3T3 cell proliferation [3]: > 5 nM

B9: hBDI-5H1.1 (antibody, V domains shown)
VH: EVTLRESGPALVKPTQTLTLTCTFSGFSLSTFGMGVGWIRQPPGKALEWLANIWWDDDKYYNPSLKNRLTISKDTSKNQVVLTMTNMDPVDTATYYCARISTGISSYYVMDAWGQGTTVTVSS
VL: B6 VL with S32T, A51G, D52N, I96S, N97D
hPDGF-BB IC50 (nM), hPDGF-BB-induced NIH-3T3 cell proliferation [3]: < 10 nM

B11: hBDI-9E8.3 (antibody, V domains shown)
VH: B6 VH
VL: B7 VL with F2I, V49L
hPDGF-BB IC50 (nM), hPDGF-BB-induced NIH-3T3 cell proliferation [3]: 1.58 nM

B14: hBDI-9E8.2 (antibody, V domains shown)
VH: B6 VH
VL: B6 VL with S44P, T47N, Y90F
hPDGF-BB IC50 (nM), hPDGF-BB-induced NIH-3T3 cell proliferation [3]: > 5 nM

B16: hBDI-9E8.5 (antibody, V domains shown)
VH: B6 VH with A46G, V80A, M84I
VL: B6 VL
hPDGF-BB IC50 (nM), hPDGF-BB-induced NIH-3T3 cell proliferation [3]: > 5 nM

Next, values leading:

hPDGF-BB IC50 (nM), hPDGF-BB-induced NIH-3T3 cell proliferation [3]: 0.525 nM
B5: hBDI-9E8.12 (antibody, V domains shown)
VH: EVQLVESGGGLVQPGGSLRLSCAFSGFSLSTYGMGVGWIRQAPGKGLEWLANIWWDDDKYYNPSLKNRLTISKDTSKNQAYLQINSLRAEDTAVYYCARIESIGTTYSFDYWGQGTLVTVSS
VL: DFQLTQSPSSLSASVGDRVTITCERSSGDIGDSYVSWYQQKPGKAPKNVIYADDQRPSGVPSRFSGSGSGNSASLTISSLQPEDFATYYCQSYDINIDIVFGQGTKVEIK

hPDGF-BB IC50 (nM), hPDGF-BB-induced NIH-3T3 cell proliferation [3]: 0.562 nM
B8: hBDI-9E8.10 (antibody, V domains shown)
VH: B6 VH with V80A, M84I, M117T
VL: B5 VL

hPDGF-BB IC50 (nM), hPDGF-BB-induced NIH-3T3 cell proliferation [3]: 0.574 nM
B10: hBDI-9E8.9 (antibody, V domains shown)
VH: B6 VH with V80A, M84I, M117T
VL: DFVLTQSPDSLAVSLGERATINCERSSGDIGDSYVSWYQQKPGQPPKNVIYADDQRPSGVPDRFSGSGSGNSASLTISSLQAEDVAVYFCQSYDINIDIVFGGGTKVEIK

hPDGF-BB IC50 (nM), hPDGF-BB-induced NIH-3T3 cell proliferation [3]: 0.105 nM
B12: hBDI-9E8.8 (antibody, V domains shown)
VH: B6 VH with A46G, V80A, M84I
VL: B7 VL

hPDGF-BB IC50 (nM), hPDGF-BB-induced NIH-3T3 cell proliferation [3]: 0.35 nM
B13: hBDI-9E8.7 (antibody, V domains shown)
VH: B6 VH with A46G, V80A, M84I
VL: B7 VL with F2I, V49L

hPDGF-BB IC50 (nM), hPDGF-BB-induced NIH-3T3 cell proliferation [3]: > 5 nM
B15: hBDI-9E8.6 (antibody, V domains shown)
VH: B6 VH with A46G, V80A, M84I
VL: B6 VL with S44P, T47N, Y90F
